In patent CN105367658A (ZHU JIN, dated 2016):

Target: T1, 重组人唾液酸结合免疫球蛋白样凝集素-9蛋白 (human, UniProt Q9Y336 18-348, limits assumed)
T1 construct: Purified recombinant protein coated on ELISA plates and (as 'antigen') coupled to the CM5 chip; also called recombinant human Siglec-9; Siglec9蛋白
Test: SPR (Biacore X100), antigen coupled to CM5 chip, analyte 0-80 nM

T1 sequence (Q9Y336 18-348 limits assumed): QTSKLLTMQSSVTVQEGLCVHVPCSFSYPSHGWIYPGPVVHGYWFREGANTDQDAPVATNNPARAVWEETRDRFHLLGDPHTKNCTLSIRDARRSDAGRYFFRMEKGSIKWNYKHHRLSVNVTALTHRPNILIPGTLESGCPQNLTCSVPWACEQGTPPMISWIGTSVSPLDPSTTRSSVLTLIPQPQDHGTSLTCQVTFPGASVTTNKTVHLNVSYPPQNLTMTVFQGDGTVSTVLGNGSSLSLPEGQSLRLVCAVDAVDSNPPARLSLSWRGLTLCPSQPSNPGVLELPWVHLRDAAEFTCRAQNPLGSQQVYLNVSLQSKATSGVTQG

- Kd: 0.738 nM
B1: 人源抗唾液酸结合免疫球蛋白样凝集素-9抗体IgG (antibody, V domains shown)
VH: EVQLVESGAEVKKPGASVKVSCKASGYIFTGYYMHWVRQAPGQGLEWMGWINPKSGGTNYAQKFQGRVTMTRDTSISTAYMELSRLRSDDTAVYYCVRDLGATGGDYWGQGTLVTVSS
VL: ELVLTQPPSVSVSPGQTARVTCSGDALPKKYAYWYQQKSGQAPILVIYGDNKRPSGIPERFSGSSSGTMATLTISGAQVEDEADYYCYSIDRSGNRVFGGGTRLTVLQ
notes: also called PA21抗体; 抗Siglec-9抗体
